Data: publication PMC3776475

What was measured:
[1] = target: JR-FL SOSIP.R6-IZ-D7324 gp140 expressed in 293S GnTI^-/- cells (HIV-1 isolate JR-FL (subtype B)); experiment: native gel or EMSA
[2] = target: JR-FL SOSIP.R6-IZ-D7324 gp140 expressed in 293S GnTI^-/- cells (HIV-1 isolate JR-FL (subtype B)); experiment: SEC
[3] = target: JR-FL SOSIP.R6-IZ-D7324 gp140 expressed in 293T cells (HIV-1 isolate JR-FL (subtype B)); experiment: native gel or EMSA
[4] = target: KNH1144 SOSIP.R6 MPER gp140 expressed in 293S GnTI^-/- cells with furin (HIV-1 isolate KNH1144 (subtype A)); experiment: SEC
[5] = target: KNH1144 SOSIP.R6 MPER gp140 expressed in 293T cells with furin and kifunensine (HIV-1 isolate KNH1144 (subtype A)); experiment: native gel or EMSA
[6] = target: KNH1144 SOSIP.R6 MPER gp140 expressed in 293T cells with furin, without kifunensine (HIV-1 isolate KNH1144 (subtype A)); experiment: native gel or EMSA

JR-FL SOSIP.R6-IZ-D7324 gp140 expressed in 293S GnTI^-/- cells
stoichiometry N [1]: 3
stoichiometry N [2]: 3

JR-FL SOSIP.R6-IZ-D7324 gp140 expressed in 293T cells
stoichiometry N [3]: 3

KNH1144 SOSIP.R6 MPER gp140 expressed in 293S GnTI^-/- cells with furin (complex)
stoichiometry N [4]: 3

KNH1144 SOSIP.R6 MPER gp140 expressed in 293T cells with furin and kifunensine (complex)
stoichiometry N [5]: 3

KNH1144 SOSIP.R6 MPER gp140 expressed in 293T cells with furin, without kifunensine (complex)
stoichiometry N [6]: 3
